Consider 40 molecules from patent publication US20170313754A1 (PROTAGONIST THERAPEUTICS, published 2017).

Bridge positions count the residues as written; N and C are the ends. Square brackets hold non-standard residues; d marks the D form. * marks the point of attachment. NMeW = CN[C@@H](Cc1c[nH]c2ccccc12)C(=O)O; Isovaleryl = CC(C)CC(=O)*; Sar = CNCC(=O)O Where only a bound is given, the exact number is not on record here.

The assay addresses T1, human ferroportin (SLC40A1) fused in frame with GFP, stably expressed in HEK293 cells (human, UniProt Q9NP59 1-571).
T1 sequence (looked up): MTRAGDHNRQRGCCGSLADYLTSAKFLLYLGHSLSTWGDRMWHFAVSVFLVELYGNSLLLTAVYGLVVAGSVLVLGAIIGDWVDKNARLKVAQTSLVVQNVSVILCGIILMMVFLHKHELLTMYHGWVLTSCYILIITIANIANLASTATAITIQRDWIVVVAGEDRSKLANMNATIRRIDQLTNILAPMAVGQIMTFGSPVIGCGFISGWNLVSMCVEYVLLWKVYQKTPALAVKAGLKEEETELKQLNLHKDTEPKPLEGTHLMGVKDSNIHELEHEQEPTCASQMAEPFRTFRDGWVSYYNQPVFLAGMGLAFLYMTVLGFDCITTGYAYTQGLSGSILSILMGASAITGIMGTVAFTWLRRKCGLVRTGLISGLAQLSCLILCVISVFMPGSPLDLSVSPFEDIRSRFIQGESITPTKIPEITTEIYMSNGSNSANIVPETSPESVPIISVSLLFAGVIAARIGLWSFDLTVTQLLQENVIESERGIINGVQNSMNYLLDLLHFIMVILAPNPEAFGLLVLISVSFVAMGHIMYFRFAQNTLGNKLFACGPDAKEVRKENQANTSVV
Briefly: cell-based or functional assay.

Isovaleryl-DTHFPCIKFEPRSKEWVCK-NH2 (disulfide 6-18 (inferred)) [Isovaleric acid-DTHFPCIKFEPRSKEWVCK-NH2]: the “Potency EC50 (nM), ferroportin-GFP internalization/degradation” value turned out to be 20 nM.

On to Isovaleryl-DTHFPCIIFGPRSKG[NMeW]VC-NH2 (disulfide 6-18 (inferred)) [Isovaleric acid-DTHFPCIIFGPRSKG-[N-MeTrp]-VC-NH2], for which the “Potency EC50 (nM), ferroportin-GFP internalization/degradation” value stood at 32 nM. Consider H-DTHKPCIIF-NH2 [Hy-DTHKPCIIF-NH2], for which the “Potency: percent at the stated concentration, ferroportin-GFP internalization/degradation” value stood at 45 % at 10 uM. For H-DTHFPCIFGPRSKGWVC-NH2 (disulfide 6-17 (inferred)) [Hy-DTHFPCIFGPRSKGWVC-NH2], the “Potency EC50 (nM), ferroportin-GFP internalization/degradation” value was > 1000 nM. With Isovaleryl-DTHFPCIKFEPRSKEWVCK-OH (not fully specified (bridges); cysteine pairing not given here) [Isovaleric acid-DTHFPCIKFEPRSKEWVCK-OH], the “Potency EC50 (nM), ferroportin-GFP internalization/degradation” value was found to be 46 nM. H-DTHFPCIIFAC-NH2 (disulfide 6-11 (inferred)) [Hy-DTHFPCIIFAC-NH2]: the “Potency EC50 (nM), ferroportin-GFP internalization/degradation” value was > 1000 nM.

For Isovaleryl-DTHFPCIIFEPRSKHWVCK-NH2 (disulfide 6-18 (inferred)) [Isovaleric acid-DTHFPCIIFEPRSKHWVCK-NH2], the “Potency EC50 (nM), ferroportin-GFP internalization/degradation” value was 15 nM. Same read-out and setting: the result for Isovaleryl-DTHFPCIIFEPRSKLWVCK-NH2 (disulfide 6-18 (inferred)) [Isovaleric acid-DTHFPCIIFEPRSKLWVCK-NH2] reads 7 nM. Consider H-DTHFPCIIFAA-NH2 [Hy-DTHFPCIIFAA-NH2], for which the “Potency: percent at the stated concentration, ferroportin-GFP internalization/degradation” value was found to be 59 % at 1 uM.

B1: Isovaleric acid-DTHFPCIIF-[Sarc]-PRSKG-[N-MeTrp]-VC-NH2 (peptide)
peptide: DTHFPCIIFXPRSKGWVC
modifications: N-terminal isovaleric acid; Sarc at position 10; N-MeTrp at position 16; C-terminal amide
Regarding B1, the “Potency EC50 (nM), ferroportin-GFP internalization/degradation” value is 10 nM. The same measure, in the same setting: the figure for H-ATHFPCIIF-NH2 [Hy-ATHFPCIIF-NH2] is > 1000 nM; for H-ADHFPCIIF-NH2 [Hy-ADHFPCIIF-NH2] it is > 1000 nM. Regarding H-DTHFVCIIF-NH2 [Hy-DTHFVCIIF-NH2], the “Potency: percent at the stated concentration, ferroportin-GFP internalization/degradation” value was determined as 50 % at 10 uM. As to Isovaleryl-DTHFPCKIFGPRSKGWECK-NH2 (disulfide 6-18 (inferred)) [Isovaleric acid-DTHFPCKIFGPRSKGWECK-NH2], the “Potency EC50 (nM), ferroportin-GFP internalization/degradation” value is 163 nM. On the same count and under the same terms, the result for Isovaleryl-DTHFPCIKFKPHSKEWVCE-NH2 (disulfide 6-18 (inferred)) [Isovaleric acid-DTHFPCIKFKPHSKEWVCE-NH2] reads 46 nM. As to H-DTHFPCIIT-NH2 [Hy-DTHFPCIIT-NH2], the “Potency: percent at the stated concentration, ferroportin-GFP internalization/degradation” value amounted to 23 % at 1 uM.

B2: Isovaleric acid-DTHFPCIIF-[Sarc]-PHSKG-[N-MeTrp]-VC-NH2 (peptide)
peptide: DTHFPCIIFXPHSKGWVC
modifications: N-terminal isovaleric acid; Sarc at position 10; N-MeTrp at position 16; C-terminal amide
B2: the “Potency EC50 (nM), ferroportin-GFP internalization/degradation” value was 9 nM.

B3: Hy-DTHFPCIIFGPRSRGHVCK-NH2 (peptide)
peptide: H-DTHFPCIIFGPRSRGHVCK-NH2
modifications: not fully specified (bridges); printed as Hy-DTHFPCIIFGPRSRGHVCK-NH2; cysteine pairing not given here
B3: the “Potency EC50 (nM), ferroportin-GFP internalization/degradation” value was > 1000 nM.

For the molecule H-DPHFPCIIF-NH2 [Hy-DPHFPCIIF-NH2], the “Potency: percent at the stated concentration, ferroportin-GFP internalization/degradation” value came out at 64 % at 10 uM.

For the molecule Isovaleryl-DTHFPCIIFEPRSKFWVCK-NH2 (disulfide 6-18 (inferred)) [Isovaleric acid-DTHFPCIIFEPRSKFWVCK-NH2], the “Potency EC50 (nM), ferroportin-GFP internalization/degradation” value turned out to be 10 nM. Turning to Isovaleryl-DTHFPCIIFEPRSKEWVCK-NH2 (disulfide 6-18 (inferred)) [Isovaleric acid-DTHFPCIIFEPRSKEWVCK-NH2], the “Potency EC50 (nM), ferroportin-GFP internalization/degradation” value came to 19 nM. The same measure, in the same setting: the figure for H-DTHFPIICI-NH2 [Hy-DTHFPIICI-NH2] is > 10000 nM.

B4: Hy-DTHFPCIIFGPRSKGWVAC-NH2 (peptide)
peptide: H-DTHFPCIIFGPRSKGWVAC-NH2
modifications: not fully specified (bridges); printed as Hy-DTHFPCIIFGPRSKGWVAC-NH2; cysteine pairing not given here
Take B4: the “Potency EC50 (nM), ferroportin-GFP internalization/degradation” value stood at 281 nM.

As to Isovaleryl-DTHFPCRRFGPRSKGWVCK-NH2 (disulfide 6-18 (inferred)) [Isovaleric acid-DTHFPCRRFGPRSKGWVCK-NH2], the “Potency EC50 (nM), ferroportin-GFP internalization/degradation” value was > 1000 nM. Still for that read-out and setting: the figure for H-DTHFP[dC]IIFGPRSKGWVA[dC]-NH2 (disulfide 6-19 (inferred)) [Hy-DTHFP-[(D)Cys]-IIFGPRSKGWVA-[(D)Cys]-NH2] is > 10000 nM. H-DTHFPCIEY-NH2 [Hy-DTHFPCIEY-NH2]: the “Potency: percent at the stated concentration, ferroportin-GFP internalization/degradation” value turned out to be 8 % at 1 uM. Regarding H-DTHCPIAIF-NH2 [Hy-DTHCPIAIF-NH2], the “Potency EC50 (nM), ferroportin-GFP internalization/degradation” value is > 10000 nM. On the same count and under the same terms, the figure for Isovaleryl-DTHFPCKIFGPRSKGWVCK-NH2 (disulfide 6-18 (inferred)) [Isovaleric acid-DTHFPCKIFGPRSKGWVCK-NH2] is 86 nM.

B5: Hy-DTHFPCIIFGPRSKGWAVCYW-NH2 (peptide)
peptide: H-DTHFPCIIFGPRSKGWAVCYW-NH2
modifications: not fully specified (bridges); printed as Hy-DTHFPCIIFGPRSKGWAVCYW-NH2; cysteine pairing not given here
Regarding B5, the “Potency EC50 (nM), ferroportin-GFP internalization/degradation” value stood at 197 nM. On the same count and under the same terms, the result for Isovaleryl-DTHFPCIKFEPHSK[Sar]CK-NH2 (not fully specified (bridges); cysteine pairing not given here) [Isovaleric acid-DTHFPCIKFEPHSK-[Sarc]-CK-NH2] reads 28 nM; that for H-DTHFPIAICI-NH2 [Hy-DTHFPIAICI-NH2], > 10000 nM.

B6: Hy-DTHFPCIIFGPRSKGWVACY-NH2 (peptide)
peptide: H-DTHFPCIIFGPRSKGWVACY-NH2
modifications: not fully specified (bridges); printed as Hy-DTHFPCIIFGPRSKGWVACY-NH2; cysteine pairing not given here
On to B6, for which the “Potency EC50 (nM), ferroportin-GFP internalization/degradation” value is > 10000 nM.

B7: Hy-DTHFPCIIFGPRSKGWNCK-NH2 (peptide)
peptide: H-DTHFPCIIFGPRSKGWNCK-NH2
modifications: not fully specified (bridges); printed as Hy-DTHFPCIIFGPRSKGWNCK-NH2; cysteine pairing not given here
For the molecule B7, the “Potency EC50 (nM), ferroportin-GFP internalization/degradation” value is > 1000 nM. Still for that read-out and setting: the result for H-DTHICIAIF-NH2 [Hy-DTHICIAIF-NH2] reads > 10000 nM; that for H-DTHFPICIFGPHRSKGWVCM-NH2 (disulfide 7-19 (inferred)) [Hy-DTHFPICIFGPHRSKGWVCM-NH2], 149 nM. Turning to H-DTHFPCIIY-NH2 [Hy-DTHFPCIIY-NH2], the “Potency: percent at the stated concentration, ferroportin-GFP internalization/degradation” value worked out at 75 % at 10 uM. H-DTHFPCIIFKC-NH2 (disulfide 6-11 (inferred)) [Hy-DTHFPCIIFKC-NH2]: the “Potency EC50 (nM), ferroportin-GFP internalization/degradation” value worked out at 6400 nM.

Take H-DTHFPCILY-NH2 [Hy-DTHFPCILY-NH2]: the “Potency: percent at the stated concentration, ferroportin-GFP internalization/degradation” value came out at 85 % at 1 uM. For the molecule H-DTHFPCRIFGPRSRGWVCK-NH2 (disulfide 6-18 (inferred)) [Hy-DTHFPCRIFGPRSRGWVCK-NH2], the “Potency EC50 (nM), ferroportin-GFP internalization/degradation” value was > 1000 nM. On to Isovaleryl-DTHFPCIKFEPRSKLWVCK-NH2 (disulfide 6-18 (inferred)) [Isovaleric acid-DTHFPCIKFEPRSKLWVCK-NH2], for which the “Potency EC50 (nM), ferroportin-GFP internalization/degradation” value was 9 nM.
